Results on five molecules are retold here after patent US20050106141A1 (PROCTER AND GAMBLE, published 2005).

For one assay, the target named is T1, LexA BD-HRt (mouse, UniProt P0A7C2 1-202; Q61645 490-1182).
T1 construct: domain: Lex A DNA BD;range 490-1182; also called BD-HRt(mouse); Lex A DNA BD-HRt
T1 sequence (looked up): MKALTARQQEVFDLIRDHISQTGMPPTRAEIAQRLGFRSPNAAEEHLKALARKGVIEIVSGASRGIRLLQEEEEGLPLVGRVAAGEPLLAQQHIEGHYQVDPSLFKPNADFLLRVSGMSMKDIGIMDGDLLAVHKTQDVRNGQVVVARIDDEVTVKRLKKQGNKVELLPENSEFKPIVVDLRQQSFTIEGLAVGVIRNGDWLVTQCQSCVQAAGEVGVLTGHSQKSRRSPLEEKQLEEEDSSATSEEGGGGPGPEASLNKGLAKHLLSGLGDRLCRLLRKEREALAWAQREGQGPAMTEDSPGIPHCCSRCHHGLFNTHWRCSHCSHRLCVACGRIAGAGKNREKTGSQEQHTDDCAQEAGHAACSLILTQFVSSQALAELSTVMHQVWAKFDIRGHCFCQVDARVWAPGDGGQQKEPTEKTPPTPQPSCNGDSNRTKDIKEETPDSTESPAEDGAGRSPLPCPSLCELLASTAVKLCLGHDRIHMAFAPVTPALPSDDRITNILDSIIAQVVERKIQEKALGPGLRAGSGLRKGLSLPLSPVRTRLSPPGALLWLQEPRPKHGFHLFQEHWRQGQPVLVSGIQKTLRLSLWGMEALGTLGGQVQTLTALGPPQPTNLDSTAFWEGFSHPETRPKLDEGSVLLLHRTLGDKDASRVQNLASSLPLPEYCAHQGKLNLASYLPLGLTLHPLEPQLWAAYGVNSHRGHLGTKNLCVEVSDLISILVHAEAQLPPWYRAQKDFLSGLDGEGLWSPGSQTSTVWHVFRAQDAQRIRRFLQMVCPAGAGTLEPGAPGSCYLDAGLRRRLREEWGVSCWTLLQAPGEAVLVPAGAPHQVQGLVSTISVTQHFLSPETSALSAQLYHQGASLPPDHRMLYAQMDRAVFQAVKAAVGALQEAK
Description: yeast two-hybrid library screen; number of positive clones with this identity.

Another assay has as its target T2, AD-HRt(mouse) (mouse, UniProt Q61645 490-1182).
T2 sequence (looked up): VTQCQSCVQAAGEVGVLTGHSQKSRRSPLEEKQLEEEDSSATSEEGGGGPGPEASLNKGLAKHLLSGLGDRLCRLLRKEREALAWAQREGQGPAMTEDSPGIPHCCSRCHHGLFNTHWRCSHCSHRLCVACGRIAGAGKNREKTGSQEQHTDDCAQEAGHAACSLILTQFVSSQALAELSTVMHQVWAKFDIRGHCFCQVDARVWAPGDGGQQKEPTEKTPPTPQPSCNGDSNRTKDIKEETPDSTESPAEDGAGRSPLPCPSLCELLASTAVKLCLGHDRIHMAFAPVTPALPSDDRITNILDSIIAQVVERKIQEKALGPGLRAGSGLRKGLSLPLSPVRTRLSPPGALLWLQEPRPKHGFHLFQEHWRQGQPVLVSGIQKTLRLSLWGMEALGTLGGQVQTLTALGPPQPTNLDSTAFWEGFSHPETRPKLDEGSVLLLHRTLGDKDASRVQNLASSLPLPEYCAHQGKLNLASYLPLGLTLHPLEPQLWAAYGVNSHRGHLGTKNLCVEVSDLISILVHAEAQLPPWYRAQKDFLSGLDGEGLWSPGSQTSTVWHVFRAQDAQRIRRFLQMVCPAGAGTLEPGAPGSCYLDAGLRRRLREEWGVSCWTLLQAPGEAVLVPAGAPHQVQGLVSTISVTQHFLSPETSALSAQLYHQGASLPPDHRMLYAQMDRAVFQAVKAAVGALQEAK
Description: cell-based or functional assay.

For the next assay, the target named is AD-TRβ (UniProt P04386 768-881). Description: cell-based or functional assay.
Chain of AD-TRβ (P04386 768-881): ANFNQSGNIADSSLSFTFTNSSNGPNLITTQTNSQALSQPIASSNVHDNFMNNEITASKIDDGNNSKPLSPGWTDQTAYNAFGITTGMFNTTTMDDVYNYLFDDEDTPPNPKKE

Description for LexA BD-HRt: Clontech Human Keratinocyte GAL4 cDNA library (complexity 2.5×10⁶) in pACT2 vector was used used to screen for HRt interacting proteins. A Leu⁻, Trp⁻ yeast strain with HIS3 and LACZ reporters for yeasts two hybrid interaction (strain L41) was first transformed with LexA BD-HRt palsmid) for Trp⁺ phenotype. The resulting L41/LexA BD-HR transformant was screened to ensure expression of LexA BD-HRt protein and also for lack of auto activation of the reporter genes HIS3 and LACZ. This strain was transformed with Keratinocyte AD-cDNA library and plated on Trp⁻Leu⁻His⁻ plate to select for clones with positive interaction. Colonies that appeared on selsctive plates were subsequently tested for LACZ expression on X-GAL plates. […] AD-plasmid was rescued from the 90 clones and retested for HRt bait dependance. […] The positive clones are expected to contain an AD-IP (interacting partner) that interacts with BD-HRt.

B1: Homo Sapiens DEAD (Asp-Glu-Ala-Asp) box polypeptide 3 (enzyme, UniProt O00571 1-662, looked up, not shown: large carriers)
chain: MSHVAVENALGLDQQFAGLDLNSSDNQSGGSTASKGRYIPPHLRNREATKGFYDKDSSGWSSSKDKDAYSSFGSRSDSRGKSSFFSDRGSGSRGRFDDRGRSDYDGIGSRGDRSGFGKFERGGNSRWCDKSDEDDWSKPLPPSERLEQELFSGGNTGINFEKYDDIPVEATGNNCPPHIESFSDVEMGEIIMGNIELTRYTRPTPVQKHAIPIIKEKRDLMACAQTGSGKTAAFLLPILSQIYSDGPGEALRAMKENGRYGRRKQYPISLVLAPTRELAVQIYEEARKFSYRSRVRPCVVYGGADIGQQIRDLERGCHLLVATPGRLVDMMERGKIGLDFCKYLVLDEADRMLDMGFEPQIRRIVEQDTMPPKGVRHTMMFSATFPKEIQMLARDFLDEYIFLAVGRVGSTSENITQKVVWVEESDKRSFLLDLLNATGKDSLTLVFVETKKGADSLEDFLYHEGYACTSIHGDRSQRDREEALHQFRSGKSPILVATAVAARGLDISNVKHVINFDLPSDIEEYVHRIGRTGRVGNLGLATSFFNERNINITKDLLDLLVEAKQEVPSWLENMAYEHHYKGSSRGRSKSSRFSGGFGARDYRQSSGASSSSFSSSRASSSRSGGGGHGSSRGFGGGGYGGFYNSDGYGGNYNSQGVDWWGN
notes: Prey clone; extent of the clone unknown; also called Homo Sapiens DEAD/H (Asp-Glu-Ala-Asp/His) Box Polypeptide 3; AD-IP
B1 returned a Hits with LexA BD-HRt of 2.

B2: Homo Sapiens Ubiquitous Receptor (receptor, UniProt P55055 1-460, looked up, not shown: large carriers)
chain: MSSPTTSSLDTPLPGNGPPQPGAPSSSPTVKEEGPEPWPGGPDPDVPGTDEASSACSTDWVIPDPEEEPERKRKKGPAPKMLGHELCRVCGDKASGFHYNVLSCEGCKGFFRRSVVRGGARRYACRGGGTCQMDAFMRRKCQQCRLRKCKEAGMREQCVLSEEQIRKKKIRKQQQESQSQSQSPVGPQGSSSSASGPGASPGGSEAGSQGSGEGEGVQLTAAQELMIQQLVAAQLQCNKRSFSDQPKVTPWPLGADPQSRDARQQRFAHFTELAIISVQEIVDFAKQVPGFLQLGREDQIALLKASTIEIMLLETARRYNHETECITFLKDFTYSKDDFHRAGLQVEFINPIFEFSRAMRRLGLDDAEYALLIAINIFSADRPNVQEPGRVEALQQPYVEALLSYTRIKRPQDQLRFPRMLMKLVSLRTLSSVHSEQVFALRLQDKKLPPLLSEIWDVHE
notes: Prey clone; also called Oxysterols Receptor LXR-Beta; LXR
As to B2, in the assay with LexA BD-HRt, the Hits was determined as 14.

B3: BD-VDR(mouse) (receptor, UniProt P04386 1-147, looked up)
chain: MKLLSSIEQACDICRLKKLKCSKEKPKCAKCLKNNWECRYSPKTKRSPLTRAHLTEVESRLERLEQLFLLIFPREDLDMILKMDSLQDIKALLTGLFVQDNVNKDAVTDRLASVETDMPLTLRQHRISATSSSEESSNKGQRQLTVSMEAMAASTSLPDPGDFDRNVPRICGVCGDRATGFHFNAMTCEGCKGFFRRSMKRKALFTCPFNGDCRITKDNRRHCQACRLKRCVDIGMMKEFILTDEEVQRKREMIMKRKEEEALKDSLRPKLSEEQQHIIAILLDAHHKTYDPTYADFRDFRPPIRADVSTGSYSPRPTLSFSGDSSSNSDLYTPSLDMMEPASFSTMDLNEEGSDDPSVTLDLSPLSMLPHLADLVSYSIQKVIGFAKMIPGFRDLTSDDQIVLLKSSAIEVIMLRSNQSFTLDDMSWDCGSQDYKYDITDVSRAGHTLELIEPLIKFQVGLKKLNLHEEEHVLLMAICIVSPDRPGVQDAKLVEAIQDRLSNTLQTYIRCRHPPPGSHQLYAKMIQKLADLRSLNEEHSKQYRSLSFQPENSMKLTPLVLEVFGNEIS
In the case of B3, in the assay with AD-HRt(mouse), the “relative alpha-galactosidase activity (yeast two-hybrid reporter, assay of example 3) with 1alpha, 25-dihydroxy cholecalciferol (25 DHC) at sub-micromolar concentrations” value was more than 3 fold and the “relative alpha-galactosidase activity (yeast two-hybrid reporter, assay of example 3) with 25-hydroxy cholecalciferol (25 HC) at sub-micromolar concentrations” value was more than 3 fold. In addition, the “yeast two-hybrid reporter with 25 HC” value with AD-TRβ was approximately 2 fold.

B4: Homo Sapiens Protein Inhibitor of Activated STAT-1 (PIAS1) (other, UniProt O75925 1-651, looked up, not shown: large carriers)
chain: MADSAELKQMVMSLRVSELQVLLGYAGRNKHGRKHELLTKALHLLKAGCSPAVQMKIKELYRRRFPQKIMTPADLSIPNVHSSPMPATLSPSTIPQLTYDGHPASSPLLPVSLLGPKHELELPHLTSALHPVHPDIKLQKLPFYDLLDELIKPTSLASDNSQRFRETCFAFALTPQQVQQISSSMDISGTKCDFTVQVQLRFCLSETSCPQEDHFPPNLCVKVNTKPCSLPGYLPPTKNGVEPKRPSRPINITSLVRLSTTVPNTIVVSWTAEIGRNYSMAVYLVKQLSSTVLLQRLRAKGIRNPDHSRALIKEKLTADPDSEIATTSLRVSLLCPLGKMRLTIPCRALTCSHLQCFDATLYIQMNEKKPTWVCPVCDKKAPYEHLIIDGLFMEILKYCTDCDEIQFKEDGTWAPMRSKKEVQEVSASYNGVDGCLSSTLEHQVASHHQSSNKNKKVEVIDLTIDSSSDEEEEEPSAKRTCPSLSPTSPLNNKGILSLPHQASPVSRTPSLPAVDTSYINTSLIQDYRHPFHMTPMPYDLQGLDFFPFLSGDNQHYNTSLLAAAAAAVSDDQDLLHSSRFFPYTSSQMFLDQLSAGGSTSLPTTNGSSSGSNSSLVSSNSLRESHSHTVTNRSSTDTASIFGIIPDIISLD
notes: Prey clone; extent of the clone unknown; also called AD-IP; AF167160
For B4, the Hits with LexA BD-HRt was 1.

B5: Homo Sapiens Similar to Stromal Antigen 2 (other, UniProt Q8N3U4 1-1231, looked up, not shown: large carriers)
chain: MIAAPEIPTDFNLLQESETHFSSDTDFEDIEGKNQKQGKGKTCKKGKKGPAEKGKGGNGGGKPPSGPNRMNGHHQQNGVENMMLFEVVKMGKSAMQSVVDDWIESYKHDRDIALLDLINFFIQCSGCKGVVTAEMFRHMQNSEIIRKMTEEFDEDSGDYPLTMAGPQWKKFKSSFCEFIGVLVRQCQYSIIYDEYMMDTVISLLTGLSDSQVRAFRHTSTLAAMKLMTALVNVALNLSINMDNTQRQYEAERNKMIGKRANERLELLLQKRKELQENQDEIENMMNAIFKGVFVHRYRDAIAEIRAICIEEIGIWMKMYSDAFLNDSYLKYVGWTMHDKQGEVRLKCLTALQGLYYNKELNSKLELFTSRFKDRIVSMTLDKEYDVAVQAIKLLTLVLQSSEEVLTAEDCENVYHLVYSAHRPVAVAAGEFLYKKLFSRRDPEEDGMMKRRGRQGPNANLVKTLVFFFLESELHEHAAYLVDSMWDCATELLKDWECMNSLLLEEPLSGEEALTDRQESALIEIMLCTIRQAAECHPPVGRGTGKRVLTAKEKKTQLDDRTKITELFAVALPQLLAKYSVDAEKVTNLLQLPQYFDLEIYTTGRLEKHLDALLRQIRNIVEKHTDTDVLEACSKTYHALCNEEFTIFNRVDISRSQLIDELADKFNRLLEDFLQEGEEPDEDDAYQVLSTLKRITAFHNAHDLSKWDLFACNYKLLKTGIENGDMPEQIVIHALQCTHYVILWQLAKITESSSTKEDLLRLKKQMRVFCQICQHYLTNVNTTVKEQAFTILCDILMIFSHQIMSGGRDMLEPLVYTPDSSLQSELLSFILDHVFIEQDDDNNSADGQQEDEASKIEALHKRRNLLAAFCKLIVYTVVEMNTAADIFKQYMKYYNDYGDIIKETMSKTRQIDKIQCAKTLILSLQQLFNEMIQENGYNFDRSSSTFSGIKELARRFALTFGLDQLKTREAIAMLHKDGIEFAFKEPNPQGESHPPLNLAFLDILSEFSSKLLRQDKRTVYVYLEKFMTFQMSLRREDVWLPLMSYRNSLLAGGDDDTMSVISGISSRGSTVRSKKSKPSTGKRKVVEGMQLSLTEESSSSDSMWLSREQTLHTPVMMQTPQLTSTIMREPKRLRPEDSFMSVYPMQTEHHQTPLDYNRRGTSLMEDDEEPIVEDVMMSSEGRIEDLNEGMDFDTMDIDLPPSKNRRERTELKPDFFDPASIMDESVLGVSMF
notes: Prey clone; also called AD-IP; BC001765
Take B5: the Hits with LexA BD-HRt was 4.
